Laboratory results as given in patent US20050069530A1.

How the values were obtained:
Experiment in all cases: cell-based or functional assay
[1] = biological target: T1, human type IIA sPLA2 (human), P14555
T1 chain: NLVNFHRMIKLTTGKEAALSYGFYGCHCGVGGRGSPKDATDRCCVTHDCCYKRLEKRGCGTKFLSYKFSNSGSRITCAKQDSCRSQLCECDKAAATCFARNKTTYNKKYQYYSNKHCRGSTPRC

crotoxin B, P62022 = biological target: crotoxin B, P62022
[2] = biological target: T2, human recombinant cytosolic PLA2 (cPLA2) (human), P47712
T2 chain: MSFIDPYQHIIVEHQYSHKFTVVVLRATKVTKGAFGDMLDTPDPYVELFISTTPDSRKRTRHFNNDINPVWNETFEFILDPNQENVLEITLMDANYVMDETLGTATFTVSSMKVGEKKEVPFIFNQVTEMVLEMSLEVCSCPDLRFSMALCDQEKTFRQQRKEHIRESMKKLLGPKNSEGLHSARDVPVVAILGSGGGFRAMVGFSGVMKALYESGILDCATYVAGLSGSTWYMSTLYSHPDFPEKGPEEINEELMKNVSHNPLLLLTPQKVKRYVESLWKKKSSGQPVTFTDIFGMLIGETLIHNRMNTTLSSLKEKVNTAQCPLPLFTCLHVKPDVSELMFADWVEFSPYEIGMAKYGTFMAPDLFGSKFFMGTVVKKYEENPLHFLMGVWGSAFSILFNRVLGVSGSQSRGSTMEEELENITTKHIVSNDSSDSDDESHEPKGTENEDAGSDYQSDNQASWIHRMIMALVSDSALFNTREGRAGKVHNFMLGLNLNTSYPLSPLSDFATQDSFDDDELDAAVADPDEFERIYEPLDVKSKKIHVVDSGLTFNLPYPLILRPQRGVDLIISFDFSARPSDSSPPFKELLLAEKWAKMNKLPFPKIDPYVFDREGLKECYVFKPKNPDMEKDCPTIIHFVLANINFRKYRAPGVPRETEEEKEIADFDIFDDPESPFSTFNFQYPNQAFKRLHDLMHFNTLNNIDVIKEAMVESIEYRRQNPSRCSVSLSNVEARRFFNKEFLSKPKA

B1: P-NT.II (peptide)
peptide: LGRVDIHVWDGVYIRGR
modifications: not checked
- IC50 of sPLA2 enzyme inhibition (3H-labelled E. coli membranes as substrate) [1]: 5.3 µM
- IC50 of PLA2 enzyme inhibition (labeled E. coli membrane assay) (crotoxin B, P62022): 4.9 µM
- selectivity of enzyme inhibition, sPLA2 over cPLA2 [2]: 5 fold

B2: Scrambled P-NT.II (peptide)
peptide: YRRVDIGLRVWHDLGVG
modifications: not checked
- IC50 of PLA2 enzyme inhibition (labeled E. coli membrane assay) (crotoxin B, P62022): > 250 µM
